What was measured:
[1] = biological target: 2(1CT)-GFP, GFP-tagged tandem dimer linking a full-length PANX1 subunit to a C-terminally truncated PANX1 subunit (human) (UniProt Q96RD7); experiment: single-molecule photobleaching (TIRF microscopy), subunit counting; GFP-tagged concatemers in the plasma membrane of HEK293T cells 5-7 h after transfection; photobleaching steps fitted by binomial distributions assuming ~65% of GFP is fluorescent
[2] = biological target: 3(2CT)-GFP, GFP-tagged trimeric concatemer of two full-length PANX1 subunits and a C-terminally truncated PANX1 subunit (human) (UniProt Q96RD7); experiment: as above
[3] = biological target: 3(2CT)-GFP, GFP-tagged trimeric concatemer of two full-length PANX1 subunits and a C-terminally truncated PANX1 subunit (human) (UniProt Q96RD7); experiment: cross-linking; HEK293T cells surface-biotinylated (Sulfo-NHS-LC-Biotin, 4 °C, 30 min), then cross-linked with 1.8 mM disuccinimidyl suberate at 4 °C for 1 h; streptavidin precipitation and western blot; not quantitative according to the paper
[4] = biological target: caspase 3-cleaved PANX1 (C-terminally cleaved human PANX1) (human); experiment: SEC; purified PANX1 in amphipol A8-35 on an SRT-C 300 column (Sepax); oligomer size judged from the elution volume
[5] = biological target: the molecule itself; experiment: as above

## 2(1CT)-GFP, GFP-tagged tandem dimer linking a full-length PANX1 subunit to a C-terminally truncated PANX1 subunit (from UniProt Q96RD7 1-426)
[1]
  stoichiometry N: 3

## 3(2CT)-GFP, GFP-tagged trimeric concatemer of two full-length PANX1 subunits and a C-terminally truncated PANX1 subunit (from UniProt Q96RD7 1-426; Q96RD7 1-426)
[2]
  stoichiometry N: 2
[3]
  stoichiometry N: 2

## caspase 3-cleaved PANX1 (C-terminally cleaved human PANX1) (domain or fragment)
[4]
  stoichiometry N: 6

B1: full-length human PANX1 (Pannexin 1) with a C-terminal enterokinase cleavage site and hexahistidine tag (natural protein, UniProt Q96RD7-1 1-426, looked up)
chain: MAIAQLATEYVFSDFLLKEPTEPKFKGLRLELAVDKMVTCIAVGLPLLLISLAFAQEISIGTQISCFSPSSFSWRQAAFVDSYCWAAVQQKNSLQSESGNLPLWLHKFFPYILLLFAILLYLPPLFWRFAAAPHICSDLKFIMEELDKVYNRAIKAAKSARDLDMRDGACSVPGVTENLGQSLWEVSESHFKYPIVEQYLKTKKNSNNLIIKYISCRLLTLIIILLACIYLGYYFSLSSLSDEFVCSIKSGILRNDSTVPDQFQCKLIAVGIFQLLSVINLVVYVLLAPVVVYTLFVPFRQKTDVLKVYEILPTFDVLHFKSEGYNDLSLYNLFLEENISEVKSYKCLKVLENIKSSGQGIDPMLLLTNLGMIKMDVVDGKTPMSAEMREEQGNQTAELQGMNIDSETKANNGEKNARQRLLDSSC
notes: Pannexin 1 (PANX1), human, NM_015368, isoform 1, 426 a.a., full length; No removal of the tag by enterokinase is described; The purified protein was probed with anti-pentaHis in a purity western; also called full-length PANX1; source: Sf9 (baculovirus), purified from membranes (TALON cobalt resin, amphipol A8-35 exchange, SEC)
[5]
  stoichiometry N: 6
